Laboratory results reported in patent US20230242902A1, “A HIGHLY ERROR-PRONE […] R[…] FOR TARGETED CONTINUOUS EVOLUTION IN VIVO” (The Regents of the University of California, priority 2017, published 2023).

System: p1
Assay: p1 copy number by p1-encoded mKate2 fluorescence
Assay type: cell-based, S. cerevisiae
Settings: OR-Y24, measured in triplicate
Outline: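 Read-out is mKate2 fluorescence of saturated OR-Y24 cultures, measured by flow cytometry or by plate reader with OD600 normalization. Flow values were converted by a qPCR-derived linear calibration; plate values were scaled to a w.t. TP-DNAP1 control.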

B1: T310E: TP-DNAP1 variant (protein)
chain: MDYKDKALNDLRNVYADFDSLPLDFRQILIKDRATLLQKEDVEKKILERQEDAKKYAEYLKQSEIPERISLPNIKRHKGVSISFEETSEDMVLEPRPFIFDGLNIRCFRRETIFSLKNKILNMVKESSSFKNVSRQSVSFMYFKIFNKGKVIASTKSVNIYEDKIDERLEDLCNNFDDVLKKIIDVTYGYESLFVSETYSYVIFYAKSIYFPQPRCVNNWGNNIPNILTFDSFKLFTANKNNVSCIKQCSRFLWQKDFNTLEEMIEYKNGNICIVTPQLHINDVRDIKSFNDIRLYSESPIKTFSVIDNEITYLFYFKEHLGVIFNITKSRHDRRVTKFSPLSKFSDVKNITVCFDIESYFDPEKESNQVNIPFICCASIIYNKVIGNIVDFEGRDCVAQMIEYVVDICGELNISSVELIAHNGGGYDFHYILSSMYNPAAIKNILIRNNSFISFNFAHDGVKFSVKDSYSFLLCSLANASKAFLNEETFKKTDFPHHDLKTADDLYKVYKEWSSVNTEINHVVEKEKLLITSEHIVNFTKNDKSKTLIEWSKDYCRNDVLVLSKVWLEFKNAVEDIFNCELVDQTMTLAGLSYKLFQANMPFDVELRHPNKEDYFNMREALIGGRCISVNGIYKDVLCLDVKSLYPASMAFYDQPYGSFKRVSSRPKDELGIYYVRVTPNRNNKSNFFPIRSHNKITYNNFEESTYIAWYTNVDIDIGLSEGHNIEYIPFDSYGNIGYSWSKKGKIFEKYIKDVLYKLKIKYEKQNNKVKRNVIKIIMNSLWGKFAQKWVNFEYFIKSEDDIDFESEEAYKIWDTDFMLIKKIKESTYSSKPIQNGVFTLSWARYHMKSIWDAGAKEGAECIYSDTDSIFVHKEHFKKNAKFMLNGLKVPIIGSEVGQLELECEFDKLLCAGKKQYMGFYTYFQDGKPCIKEKKRFKGIPSNYIIPELYAHLLSGADKEAKIQFLKFRREWGSVKGYIENKTVKAT
Question: How did the “Mean fold-increase over w.t. (p1 copy number)” value turn out when B1 was run?
Answer: Its value is 2.37 fold.

B2: T310H: TP-DNAP1 variant (protein)
chain: MDYKDKALNDLRNVYADFDSLPLDFRQILIKDRATLLQKEDVEKKILERQEDAKKYAEYLKQSEIPERISLPNIKRHKGVSISFEETSEDMVLEPRPFIFDGLNIRCFRRETIFSLKNKILNMVKESSSFKNVSRQSVSFMYFKIFNKGKVIASTKSVNIYEDKIDERLEDLCNNFDDVLKKIIDVTYGYESLFVSETYSYVIFYAKSIYFPQPRCVNNWGNNIPNILTFDSFKLFTANKNNVSCIKQCSRFLWQKDFNTLEEMIEYKNGNICIVTPQLHINDVRDIKSFNDIRLYSESPIKTFSVIDNHITYLFYFKEHLGVIFNITKSRHDRRVTKFSPLSKFSDVKNITVCFDIESYFDPEKESNQVNIPFICCASIIYNKVIGNIVDFEGRDCVAQMIEYVVDICGELNISSVELIAHNGGGYDFHYILSSMYNPAAIKNILIRNNSFISFNFAHDGVKFSVKDSYSFLLCSLANASKAFLNEETFKKTDFPHHDLKTADDLYKVYKEWSSVNTEINHVVEKEKLLITSEHIVNFTKNDKSKTLIEWSKDYCRNDVLVLSKVWLEFKNAVEDIFNCELVDQTMTLAGLSYKLFQANMPFDVELRHPNKEDYFNMREALIGGRCISVNGIYKDVLCLDVKSLYPASMAFYDQPYGSFKRVSSRPKDELGIYYVRVTPNRNNKSNFFPIRSHNKITYNNFEESTYIAWYTNVDIDIGLSEGHNIEYIPFDSYGNIGYSWSKKGKIFEKYIKDVLYKLKIKYEKQNNKVKRNVIKIIMNSLWGKFAQKWVNFEYFIKSEDDIDFESEEAYKIWDTDFMLIKKIKESTYSSKPIQNGVFTLSWARYHMKSIWDAGAKEGAECIYSDTDSIFVHKEHFKKNAKFMLNGLKVPIIGSEVGQLELECEFDKLLCAGKKQYMGFYTYFQDGKPCIKEKKRFKGIPSNYIIPELYAHLLSGADKEAKIQFLKFRREWGSVKGYIENKTVKAT
Question: How did the “Mean fold-increase over w.t. (p1 copy number)” value turn out when B2 was run?
Answer: Its value is 2.57 fold.
